The text below walks through data of paper PMC11381523 (Nature Communications, 2024).

The target of this assay is Rpb2 subunit of Komagataella phaffii RNA polymerase II (TAP-tagged) (Komagataella phaffii, UniProt F2QTX9 1-1227). Description: cryo-EM structure.

B1: Komagataella phaffii Rai1 (E213A/D215A), kpRai1(2A) (enzyme)
chain: MSKEKILPLAARSKKAMLRQPKQVAYFSRDLNYKTHPDRSNLSYYYLPDGDIDNSIDLSVGSKHFLLGDSVELSKLDPILLALKEIEKESGAKTKDRIITWRGIMRKLLTLPYDSEEDFVLDVVSFDGQLFIQFNVPYLKSKDVQKQGDTEFHKKLQFSGYKFEKMATLPKPWPECTRKEIDSRAKSKCNNIEQYGAIVRTGISRIKILIGGAVACTADYYDENDPLSRYIELKTTRTINQYKDMIAFEKKLFRTWAQCFLLGIPKIIYGFRDDNCILRTVEEFSTNDIPLMVKNNPLNEQPKKENCYMSSINFYGAVVEWLNESVKDDQVWKLSYAKRNRQYLVLKEVTDENEKQQIVDSAIPAWFKEWRSELRNSEGNI
For B1, the binding result is listed as “binds”.
